Test results taken from patent US20210388105A1 (ELPISCIENCE SUZHOU BIOPHARMA, published 2021).

Experiments:
[1] = target: T1, human CD39 (full length, on cells) (human, UniProt P49961 1-510); assay: cell-based or functional assay
T1 sequence: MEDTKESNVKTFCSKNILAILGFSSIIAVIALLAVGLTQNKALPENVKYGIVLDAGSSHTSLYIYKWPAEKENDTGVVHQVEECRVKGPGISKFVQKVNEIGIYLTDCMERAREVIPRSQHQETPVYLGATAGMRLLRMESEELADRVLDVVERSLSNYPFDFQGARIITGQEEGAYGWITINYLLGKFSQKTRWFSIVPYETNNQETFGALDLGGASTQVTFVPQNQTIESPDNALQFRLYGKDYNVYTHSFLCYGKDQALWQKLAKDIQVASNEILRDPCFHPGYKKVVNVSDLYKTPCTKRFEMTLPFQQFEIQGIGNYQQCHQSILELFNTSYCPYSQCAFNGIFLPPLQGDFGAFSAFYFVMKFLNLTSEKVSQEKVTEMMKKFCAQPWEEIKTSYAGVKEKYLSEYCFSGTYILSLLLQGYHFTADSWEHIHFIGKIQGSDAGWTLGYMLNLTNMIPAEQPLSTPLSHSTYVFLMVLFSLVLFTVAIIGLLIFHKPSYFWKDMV

[2] = target: T2, mouse CD39 (full length, on CHOK1-mCD39 cells) (mouse, UniProt P55772 1-510); assay: FACS on CHO-k1/mCD39 cells, MFI [Continued) E]
T2 construct: whole, on cells
T2 sequence (looked up): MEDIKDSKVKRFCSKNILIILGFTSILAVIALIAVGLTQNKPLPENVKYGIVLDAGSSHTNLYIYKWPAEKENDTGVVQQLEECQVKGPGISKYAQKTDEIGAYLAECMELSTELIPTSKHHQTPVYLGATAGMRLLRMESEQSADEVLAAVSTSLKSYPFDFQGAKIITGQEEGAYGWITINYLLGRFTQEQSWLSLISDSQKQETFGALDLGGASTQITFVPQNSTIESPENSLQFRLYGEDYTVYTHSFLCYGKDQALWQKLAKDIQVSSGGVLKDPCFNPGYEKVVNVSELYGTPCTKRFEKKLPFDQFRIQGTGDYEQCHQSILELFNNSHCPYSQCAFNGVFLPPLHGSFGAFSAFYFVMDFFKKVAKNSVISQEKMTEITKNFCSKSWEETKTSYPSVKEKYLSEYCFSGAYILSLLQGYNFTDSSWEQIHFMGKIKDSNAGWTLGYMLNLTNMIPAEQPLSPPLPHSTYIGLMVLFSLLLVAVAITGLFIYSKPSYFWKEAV

ENTPD3 protein = target: T3, ENTPD3 protein (Homo sapiens (Human), UniProt O75355 44-485); assay: ELISA on coated ENTPD3 protein, anti-hIgG-HRP, OD450
T3 construct: also called CD39L3; ENTPDase 3
T3 sequence: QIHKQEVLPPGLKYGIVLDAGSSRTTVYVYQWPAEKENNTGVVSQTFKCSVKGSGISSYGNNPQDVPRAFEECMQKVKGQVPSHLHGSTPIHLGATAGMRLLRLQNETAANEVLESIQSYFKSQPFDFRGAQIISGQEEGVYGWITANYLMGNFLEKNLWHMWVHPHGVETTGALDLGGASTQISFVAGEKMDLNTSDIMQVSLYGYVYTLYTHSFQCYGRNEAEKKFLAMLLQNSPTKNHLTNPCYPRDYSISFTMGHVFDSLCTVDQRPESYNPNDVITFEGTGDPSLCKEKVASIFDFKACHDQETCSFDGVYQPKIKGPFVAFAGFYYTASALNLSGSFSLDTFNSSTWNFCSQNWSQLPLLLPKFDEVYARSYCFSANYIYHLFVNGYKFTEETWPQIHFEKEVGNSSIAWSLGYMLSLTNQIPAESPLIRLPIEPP
Procedure: (§1) Binding specificity of the purified humanized antibody hu23.H5L5 against ENTPDase family members was detected by ELISA assay. Briefly, ENTPD1 (i.e. CD39) and ENTPD 2/3/5/6 proteins were coated on 96-well ELISA plates at 4° C. overnight, next day the ELISA plates were washed and blocked using blocking buffer (1% BSA in PBS with 0.05% Tween20) 200 μL/well for 2 hours. Then hu23.H5L5 gradients were duplicated into the wells and stained with anti-hIgG-HRP. After plate washing, the plates were developed with TMB substrate and stopped by 2N HCl. The OD450 were recorded using plate reader and platted by Graphpad Prism.

ENTPD2 protein = target: T4, ENTPD2 protein (Homo sapiens (Human), UniProt Q9Y5L3 29-462); assay: ELISA on coated ENTPD2 protein, anti-hIgG-HRP, OD450
T4 construct: also called CD39L1; ENTPDase 2
T4 sequence: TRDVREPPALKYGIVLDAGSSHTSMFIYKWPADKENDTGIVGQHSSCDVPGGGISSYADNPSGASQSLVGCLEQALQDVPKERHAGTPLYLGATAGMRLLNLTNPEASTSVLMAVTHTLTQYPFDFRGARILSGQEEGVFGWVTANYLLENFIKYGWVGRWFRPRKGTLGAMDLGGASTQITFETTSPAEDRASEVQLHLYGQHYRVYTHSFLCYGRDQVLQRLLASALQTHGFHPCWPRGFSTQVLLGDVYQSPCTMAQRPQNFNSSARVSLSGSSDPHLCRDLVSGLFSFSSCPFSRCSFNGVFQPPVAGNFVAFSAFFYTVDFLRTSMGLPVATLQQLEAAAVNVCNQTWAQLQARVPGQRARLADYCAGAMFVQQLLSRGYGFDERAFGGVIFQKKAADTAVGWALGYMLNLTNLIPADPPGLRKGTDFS
Procedure: as §1

[3] = target: T5, human CD39 (protein; form not stated) (human, UniProt P49961 38-478, limits assumed); assay: ELISA on coated ENTPD1 (CD39) protein, anti-hIgG-HRP, OD450
T5 construct: also called ENTPD1; ENTPDase 1
T5 sequence: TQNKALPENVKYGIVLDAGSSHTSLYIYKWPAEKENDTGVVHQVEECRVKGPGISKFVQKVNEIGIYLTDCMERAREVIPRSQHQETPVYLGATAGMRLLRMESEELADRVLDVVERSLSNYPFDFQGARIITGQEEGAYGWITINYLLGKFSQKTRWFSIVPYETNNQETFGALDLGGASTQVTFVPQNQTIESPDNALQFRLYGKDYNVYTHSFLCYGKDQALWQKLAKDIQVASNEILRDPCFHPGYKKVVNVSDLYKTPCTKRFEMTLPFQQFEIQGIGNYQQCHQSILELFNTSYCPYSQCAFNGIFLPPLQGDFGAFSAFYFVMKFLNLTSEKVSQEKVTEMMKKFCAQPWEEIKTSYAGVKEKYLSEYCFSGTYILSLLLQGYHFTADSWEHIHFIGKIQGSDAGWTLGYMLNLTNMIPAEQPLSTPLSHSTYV
Procedure: as §1

B1: hu23.H5L5 (antibody, V domains shown)
VH: QVQLVQSGAEVKKPGASVKVSCKASGYNLKDTFLHWVRQAPGQGLEWMGRIDPANGNIKYDPKFQGRVTITADTSANTAYMELISLRSEDTAVYYCANSPYYYGSGYRIFDVWGQGTTVTVSS
VL: QIVLTQSPATLSLSPGERATLSCSAFSSVNYMHWYQQKPGQAPRLLIYTTSNLASGIPTRFSGSGSGTSYTLTISSLEPEDFAVYYCQQRSTYPFTFGQGTKLEIK
notes: humanized c23
ATPase inhibition IC50 on SK-MEL-28 cells [1]: 0.122 nM | binding result [2]: no binding | binding result (ENTPD3 protein): no binding (tested: about 66 nM) | binding result (ENTPD2 protein): no binding (tested: about 66 nM) | EC50 (read off the curve) [3]: ~4 nM
